Positions count from the first letter of the chain named.
B1: S100A9E64A: purified recombinant S100A9 mutant, alanine instead of E64 (protein)
chain: MTCKMSQLERNIETIINTFHQYSVKLGHPDTLNQGEFKELVRKDLQNFLKKENKNEKVIEHIMADLDTNADKQLSFEEFIMLMARLTWASHEKMHEGDEGPGHHHKPGLGEGTP
B2: S100A9R85A: purified recombinant S100A9 mutant, alanine instead of R85 (protein)
chain: B1 chain with A64E, R85A
B3: S100A9K72A: purified recombinant S100A9 mutant, alanine instead of K72 (protein)
chain: B1 chain with A64E, K72A
B4: S100A9E77A: purified recombinant S100A9 mutant, alanine instead of E77 (protein)
chain: B1 chain with A64E, E77A
B5: S100A9Q73A: purified recombinant S100A9 mutant, alanine instead of Q73 (protein)
chain: B1 chain with A64E, Q73A
B6: S100A9D65A: purified recombinant S100A9 mutant, alanine instead of D65 (protein)
chain: B1 chain with A64E, D65A

biological target: T1, his-tagged rhTLR4/MD2 (Homo sapiens, UniProt O00206+Q9Y6Y9); test: Immunoprecipitation on TLR4/MD2-coupled beads, eluates analysed by MALDI-TOF mass spectrometry; assay type: binding; conditions: beads with TLR4/MD2, 3 h at 4° C., 1 mM Calcium, elution with 10 mM TRIS/2 mM EDTA
T1 construct: purchased R&D SYSTEMS
T1 sequence (O00206 24-631 limits assumed): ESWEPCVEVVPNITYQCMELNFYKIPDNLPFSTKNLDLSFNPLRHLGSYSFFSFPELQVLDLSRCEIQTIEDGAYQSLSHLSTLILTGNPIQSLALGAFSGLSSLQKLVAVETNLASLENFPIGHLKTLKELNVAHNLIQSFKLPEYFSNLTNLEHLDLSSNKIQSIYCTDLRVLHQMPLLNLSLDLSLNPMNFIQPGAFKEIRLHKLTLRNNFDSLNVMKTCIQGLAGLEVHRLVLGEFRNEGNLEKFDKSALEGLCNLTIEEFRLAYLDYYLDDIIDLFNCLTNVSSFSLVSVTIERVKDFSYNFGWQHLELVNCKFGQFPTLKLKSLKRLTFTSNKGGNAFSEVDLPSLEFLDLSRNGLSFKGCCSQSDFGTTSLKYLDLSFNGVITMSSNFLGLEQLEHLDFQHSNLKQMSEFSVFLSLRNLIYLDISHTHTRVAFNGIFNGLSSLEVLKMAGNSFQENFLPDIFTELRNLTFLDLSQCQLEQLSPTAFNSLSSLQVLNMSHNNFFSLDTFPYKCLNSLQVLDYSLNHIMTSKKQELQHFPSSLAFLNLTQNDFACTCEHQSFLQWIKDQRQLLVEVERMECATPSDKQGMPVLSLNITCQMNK
T1 sequence (Q9Y6Y9 17-160 limits assumed): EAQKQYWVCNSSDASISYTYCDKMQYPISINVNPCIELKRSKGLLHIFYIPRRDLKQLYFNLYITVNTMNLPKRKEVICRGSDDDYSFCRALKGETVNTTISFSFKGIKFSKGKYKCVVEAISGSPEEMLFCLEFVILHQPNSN
Procedure: Anti-His antibody (5 μL, 0.5 mg/mL, Invivogen) and his-tagged rhTLR4/MD2 (5 μL, 1 mg/mL, carrier free, R&D SYSTEMS) were mixed and coupled to Protein A/G Agarose ([…], Thermo Scientific). Trypsin digested peptides of S100A9 were added for 3 h at 4° C. in the presence of 1 mM Calcium. After washing of the beads in HBS/1 mM Ca-buffer for three times bound peptidic fragments were eluted by addition of 10 mM TRIS/2 mM EDTA-buffer and analysed by ESI and MALDI-TOF-mass spectrometry. Identical experiments were performed to analyze the binding of the chemical synthesized peptides of S100A9 (aa63-79), S100A8 (aa55-71) and the corresponding control peptides aa63-79 A5 and aa55-71 A3.

binding to TLR4/MD2 (peptide detected in eluate by MALDI-TOF mass spectrometry)	Molecule
no binding could be detected	63-79 A5: control peptide, S100A9 positions 63-79 with E64A, D65A, Q73A, E77A and K72A exchanged to alanine (MAALDTNADAALSFAEF) [reference compound]
able to bind to TLR4/MD2	55-71: synthetic peptide, positions 55-71 of human S100A8, complete C-terminal EF hand, FKELDINTDGAVNFQEF
specific interaction with TLR4/MD2	No. 15: tryptic fragment of human S100A9, amino acid sequence from positions 73 to 85, portion of the C-terminal EF Hand (QLSFEEFIMLMAR; UniProt P06702 73-85, looked up, fragment)
able to bind to TLR4/MD2	63-79: synthetic peptide, amino acid positions 63-79 of S100A9, complete C-terminal EF hand, MEDLDTNADKQLSFEEF

biological target: TLR4/MD2 (Homo sapiens, UniProt O00206+Q9Y6Y9); test: Modified S100A9-ELISA: binding of S100A9-wt and mutant proteins to plate-coupled TLR4/MD2; conditions: 2 μg/ml protein, two hours at room temperature, absorbance at 450 nm, FIG. 4B/4C
Sequence (O00206 24-631 limits assumed): as the sequence (O00206 24-631 limits assumed) above
Sequence (Q9Y6Y9 17-160 limits assumed): as the sequence (Q9Y6Y9 17-160 limits assumed) above
Procedure: Binding of S100A9 proteins to TLR4/MD2 was analysed by a modified S100A9-ELISA. Briefly, TLR4/MD2 was coupled to the wells of a 96-well plate and served as capturing molecule. After blocking of the unspecific binding sites by PBS/5% skim milk powder plates were washed three times. S100A9-wt or mutant S100A9 proteins were added at a concentration of 2 μg/ml each in the presence and absence of 100 μM Calcium and incubated for two hours at room temperature. Unbound S100A9 was removed by washing the plates for three times followed by the addition of a primary anti-S100A9-antibody (1 μg/ml, polyclonal, rabbit). After a washing step the secondary anti-rabbit-IgG-antibody coupled to HRP (1 μg/ml from Cell Signalling) was added. TMB was used as substrate for HRP to quantify binding by absorbance readings at 450 nm in an ELISA reader (Anthos Mikrosysteme).

binding to the receptor TLR4/MD2 compared to non-mutated protein (S100A9 wt)	Molecule
weaker binding	B1
not significantly different	B2
not significantly different	B3
weaker binding	B4
weaker binding	B5
weaker binding	B6
